Experimental data taken from patent publication US20240270821A1, “GIP/GLP1/GCG TRI-RECEPTOR AGONISTS AND USES THEREOF” (priority 2023, published 2024).
Substitutions are numbered along the chain they refer to.

T1: human GIP receptor (human) (UniProt P48546)
T1 sequence (looked up): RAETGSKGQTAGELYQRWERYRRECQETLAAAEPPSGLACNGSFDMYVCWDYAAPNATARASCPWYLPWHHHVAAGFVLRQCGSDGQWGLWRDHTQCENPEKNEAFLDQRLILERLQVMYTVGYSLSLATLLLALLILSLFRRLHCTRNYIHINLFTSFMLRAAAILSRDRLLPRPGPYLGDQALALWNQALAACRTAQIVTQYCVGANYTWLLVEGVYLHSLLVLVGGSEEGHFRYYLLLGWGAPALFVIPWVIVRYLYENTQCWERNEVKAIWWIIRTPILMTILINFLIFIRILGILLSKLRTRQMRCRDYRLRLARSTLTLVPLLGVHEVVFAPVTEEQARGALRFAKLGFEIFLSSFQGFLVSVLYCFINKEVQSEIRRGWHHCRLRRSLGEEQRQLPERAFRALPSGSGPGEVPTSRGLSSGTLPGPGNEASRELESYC

B1: Example 110 (peptide)
chain: YXQGTFTSDFSXXLDKKAQXAFIEYLLEXGPSSGAPPPSGE
modifications: synthetic construct; SITE 2: note = 2-Aminoisobutyric Acid; SITE 12: note = L-ornithine; SITE 13: note = alpha-methyl-leucine; SITE 17: note = Lysine is chemically modified through conjugation of the epsilon-amino group of the Lysine side chain with (2-[2-(2-Amino-ethoxy)-ethoxy]-acetyl)-(gamma-Glu)
B2: Example 122 (peptide)
chain: B1 chain with Y25W, X29G, P31H
modifications: synthetic construct; SITE 2: note = 2-Aminoisobutyric Acid; SITE 12: note = L-ornithine; SITE 13: note = alpha-methyl-leucine; SITE 17: note = Lysine is chemically modified through conjugation of the epsilon-amino group of the Lysine side chain with (2-[2-(2-Amino-ethoxy)-ethoxy]-acetyl)-(gamma-Glu)
B3: Example 114 (peptide)
chain: B1 chain with F10X, X12R
modifications: synthetic construct; SITE 2: note = 2-Aminoisobutyric Acid; SITE 10: note = 3-(4-Pyridyl)-L-alanine; SITE 13: note = alpha-methyl-leucine; SITE 17: note = Lysine is chemically modified through conjugation of the epsilon-amino group of the Lysine side chain with (2-[2-(2-Amino-ethoxy)-ethoxy]-acetyl)
B4: Example 126 (peptide)
chain: B1 chain with Y25W, X29G, P31H, S39E, E41S
modifications: synthetic construct; SITE 2: note = 2-Aminoisobutyric Acid; SITE 12: note = L-ornithine; SITE 13: note = alpha-methyl-leucine; SITE 17: note = Lysine is chemically modified through conjugation of the epsilon-amino group of the Lysine side chain with (2-[2-(2-Amino-ethoxy)-ethoxy]-acetyl)-(gamma-Glu)
B5: Example 125 (peptide)
chain: B1 chain with Y25W, X29G, P31E, S39E, E41S
modifications: synthetic construct; SITE 2: note = 2-Aminoisobutyric Acid; SITE 12: note = L-ornithine; SITE 13: note = alpha-methyl-leucine; SITE 17: note = Lysine is chemically modified through conjugation of the epsilon-amino group of the Lysine side chain with (2-[2-(2-Amino-ethoxy)-ethoxy]-acetyl)-(gamma-Glu)
B6: Example 111 (peptide)
chain: B1 chain
modifications: synthetic construct; SITE 2: note = 2-Aminoisobutyric Acid; SITE 12: note = L-ornithine; SITE 13: note = alpha-methyl-leucine; SITE 17: note = Lysine is chemically modified through conjugation of the epsilon-amino group of the Lysine side chain with (2-[2-(2-Amino-ethoxy)-ethoxy]-acetyl)2-(gamma-Glu)
B7: Example 132 (peptide)
chain: B1 chain with F10X, X12R, P31E, E41S
modifications: synthetic construct; SITE 2: note = 2-Aminoisobutyric Acid; SITE 10: note = 3-(4-Pyridyl)-L-alanine; SITE 13: note = alpha-methyl-leucine; SITE 17: note = Lysine is chemically modified through conjugation of the epsilon-amino group of the Lysine side chain with (2-[2-(2-Amino-ethoxy)-ethoxy]-acetyl)
B8: Example 121 (peptide)
chain: B1 chain with Y25W, X29G, S39E, E41S
modifications: synthetic construct; SITE 2: note = 2-Aminoisobutyric Acid; SITE 12: note = L-ornithine; SITE 13: note = alpha-methyl-leucine; SITE 17: note = Lysine is chemically modified through conjugation of the epsilon-amino group of the Lysine side chain with (2-[2-(2-Amino-ethoxy)-ethoxy]-acetyl)-(gamma-Glu)
B9: Example 117 (peptide)
chain: B1 chain with X29A, A35E
modifications: synthetic construct; SITE 2: note = 2-Aminoisobutyric Acid; SITE 12: note = L-ornithine; SITE 13: note = alpha-methyl-leucine; SITE 17: note = Lysine is chemically modified through conjugation of the epsilon-amino group of the Lysine side chain with (2-[2-(2-Amino-ethoxy)-ethoxy]-acetyl)2-(gamma-Glu)
B10: Example 115 (peptide)
chain: B1 chain with F10X, Y25W, X29G, A35E
modifications: synthetic construct; SITE 2: note = 2-Aminoisobutyric Acid; SITE 10: note = 3-(4-Pyridyl)-L-alanine; SITE 12: note = L-ornithine; SITE 13: note = alpha-methyl-leucine; SITE 17: note = Lysine is chemically modified through conjugation of the epsilon-amino group of the Lysine side chain with (2-[2-(2-
B11: Example 116 (peptide)
chain: B1 chain with X29A, A35E, G40E, E41G
modifications: synthetic construct; SITE 2: note = 2-Aminoisobutyric Acid; SITE 12: note = L-ornithine; SITE 13: note = alpha-methyl-leucine; SITE 17: note = Lysine is chemically modified through conjugation of the epsilon-amino group of the Lysine side chain with (2-[2-(2-Amino-ethoxy)-ethoxy]-acetyl)2-(gamma-Glu)
B12: Example 129 (peptide)
chain: B1 chain with X29A
modifications: synthetic construct; SITE 2: note = 2-Aminoisobutyric Acid; SITE 12: note = L-ornithine; SITE 13: note = alpha-methyl-leucine; SITE 17: note = Lysine is chemically modified through conjugation of the epsilon-amino group of the Lysine side chain with (2-[2-(2-Amino-ethoxy)-ethoxy]-acetyl)-(gamma-Glu)
B13: Example 118 (peptide)
chain: B1 chain with X29G, S39G, G40E, E41S
modifications: synthetic construct; SITE 2: note = 2-Aminoisobutyric Acid; SITE 12: note = L-ornithine; SITE 13: note = alpha-methyl-leucine; SITE 17: note = Lysine is chemically modified through conjugation of the epsilon-amino group of the Lysine side chain with (2-[2-(2-Amino-ethoxy)-ethoxy]-acetyl)2-(gamma-Glu)
B14: Example 113 (peptide)
chain: B1 chain with F10X, X12R, E28A, X29G
modifications: synthetic construct; SITE 2: note = 2-Aminoisobutyric Acid; SITE 10: note = 3-(4-Pyridyl)-L-alanine; SITE 13: note = alpha-methyl-leucine; SITE 17: note = Lysine is chemically modified through conjugation of the epsilon-amino group of the Lysine side chain with (2-[2-(2-Amino-ethoxy)-ethoxy]-acetyl)

These binders were tested against human glucagon receptor (human) (UniProt P47871) (assay: cell-based or functional assay).
Chain of human glucagon receptor (human) (P47871 26-477): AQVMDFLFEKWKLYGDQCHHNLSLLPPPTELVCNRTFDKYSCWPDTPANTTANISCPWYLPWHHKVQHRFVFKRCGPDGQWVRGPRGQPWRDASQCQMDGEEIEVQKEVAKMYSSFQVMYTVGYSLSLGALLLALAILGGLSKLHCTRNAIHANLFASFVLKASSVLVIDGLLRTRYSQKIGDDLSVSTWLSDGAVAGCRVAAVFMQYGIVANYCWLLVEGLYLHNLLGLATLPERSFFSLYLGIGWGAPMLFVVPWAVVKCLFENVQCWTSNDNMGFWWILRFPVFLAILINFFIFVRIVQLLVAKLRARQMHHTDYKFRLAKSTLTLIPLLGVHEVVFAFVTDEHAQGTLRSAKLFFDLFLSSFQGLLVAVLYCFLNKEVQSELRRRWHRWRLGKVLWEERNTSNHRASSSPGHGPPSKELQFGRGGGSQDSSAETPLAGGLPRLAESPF

Binder	Relative cAMP EC50 [nM]	cAMP Rel EC50, nM (in the presence of 1% HSA) [nM]
B1	2.45	627
B2	3.95	548
B3		1120
B4	6.81	1120
B5	3.97	901
B6	4.25	1260
B7	2.63	632
B8	4.89	442
B9	4.75	867
B10	10.6	2210
B11	3.96	882
B12	2.01	510
B13	7.02	2460
B14	12	2090

The binders below were run against human GLP-1R (SNAP-GLP-1R expressed in HEK293 cells) (human) (UniProt P43220) (assay: cell-based or functional assay).
Chain of human GLP-1R (SNAP-GLP-1R expressed in HEK293 cells) (human) (P43220 24-463): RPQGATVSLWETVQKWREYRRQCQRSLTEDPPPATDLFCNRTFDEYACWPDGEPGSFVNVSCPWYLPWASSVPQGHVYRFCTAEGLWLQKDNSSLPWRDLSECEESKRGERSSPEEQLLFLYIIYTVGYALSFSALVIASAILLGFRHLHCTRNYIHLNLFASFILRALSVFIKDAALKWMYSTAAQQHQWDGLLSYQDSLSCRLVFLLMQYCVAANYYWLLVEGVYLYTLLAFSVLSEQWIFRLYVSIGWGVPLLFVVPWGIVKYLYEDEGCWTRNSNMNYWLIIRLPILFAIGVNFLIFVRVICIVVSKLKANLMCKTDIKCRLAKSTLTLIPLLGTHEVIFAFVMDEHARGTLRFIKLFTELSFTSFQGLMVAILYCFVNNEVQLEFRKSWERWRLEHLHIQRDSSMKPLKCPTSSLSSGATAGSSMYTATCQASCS

Binder	GLP1R Internalization EC50 [nM]	Internalization % TOP [%]
B1	28.3	42.5
B2	57.4	43.7
B3	47.2	62.9
B4	63.2	38.8
B5	86.4	42.6
B6	49.1	46.4
B7	72.7	67.2
B8	38.1	46.3
B9	45.5	51
B10	255	56.5
B11	80.7	46.2
B12	22.5	40.6
B13	82.3	46.4
B14	39.5	64.6

Each binder was assayed against hGLP-1R (Homo sapiens, UniProt P43220) (assay: cell-based or functional assay).
Chain of hGLP-1R (P43220 24-463): as above

Binder	Relative cAMP EC50 [nM]	cAMP Rel EC50, nM (in the presence of 1% HSA) [nM]
B1	2.99	821
B2	3.93	468
B3		1370
B4	3.97	838
B5	4.12	1050
B6	5.06	878
B7	5.72	823
B8	2.38	348
B9	6.4	524
B10	7.6	1460
B11	7.83	401
B12	1.87	284
B13	6.03	1450
B14	3.93	467

These binders were tested against T1, human GIP receptor (human) (assay: cell-based or functional assay).

Binder	Relative cAMP EC50 [nM]	cAMP Rel EC50, nM (in the presence of 1% HSA) [nM]
B1	0.102	19.8
B2	0.189	32.6
B3		19.6
B4	0.264	40.3
B5	0.503	67.8
B6	0.0888	10.4
B7	0.21	25.9
B8	0.172	24.6
B9	0.267	29.9
B10	0.457	73.9
B11	0.382	40.4
B12	0.134	24.3
B13	0.43	63.4
B14	0.24	32.3
